Experimental data reported in the supplement of paper PMC7125110.
± gives the standard error. Variants at the floor of the assay were thinned out.

B1: glmS ribozyme (parent)
chain: AUAAAAGCGCCAGAACUACAGAAAUGUAGUUGACGAGGAGGAGGUUUAUCGAAUUUUCGGCGGAUGCCUCCAAA

Columns and labels:
Settings in all cases: with glucosamine-6-phosphate
[1] = variants of: B1; assay: self-cleavage kobs at 160 uM GlcN6P; higher = faster cleavage; RNA array
How it was run: (§1)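 kcat and KM were obtained from weighted Michaelis–Menten fits across concentrations of kobs values. Those came from one- or two-exponential decay fits to per-tile medians normalised to baseline and to non-cleaving reference variants. The variants were barcoded ribozymes transcribed in situ by E. coli RNA polymerase on sequenced MiSeq chips and tracked through a hybridised Cy3 probe at 37 °C, with 40 μM to 10 mM glucosamine-6-phosphate in HEPES/KCl/Mg(OAc)2 buffer flowed in.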

[2] = variants of: B1; assay: self-cleavage kobs at 2500 uM GlcN6P; higher = faster cleavage; RNA array
How it was run: as §1

[3] = variants of: B1; assay: self-cleavage kobs at 10000 uM GlcN6P; higher = faster cleavage; RNA array
How it was run: as §1

[4] = variants of: B1; assay: self-cleavage kobs at 640 uM GlcN6P; higher = faster cleavage; RNA array
How it was run: as §1

Variant	self-cleavage kobs at 160 uM GlcN6P [1]	self-cleavage kobs at 2500 uM GlcN6P [2]	self-cleavage kobs at 10000 uM GlcN6P [3]	self-cleavage kobs at 640 uM GlcN6P [4]
C8U U46A	< 1e-05 s⁻¹	< 1e-05 s⁻¹	< 1e-05 s⁻¹	–
A14U U30C G43A	< 1e-05 s⁻¹	< 1e-05 s⁻¹	–	< 1e-05 s⁻¹
C11A U30C G62A	< 1e-05 s⁻¹	< 1e-05 s⁻¹	–	< 1e-05 s⁻¹
A15C A36U A39G	< 1e-05 s⁻¹	< 1e-05 s⁻¹	< 1e-05 s⁻¹	< 1e-05 s⁻¹
C10G G38U A42C	< 1e-05 s⁻¹	< 1e-05 s⁻¹	–	–
G9U A48U C67G	< 1e-05 s⁻¹	< 1e-05 s⁻¹	–	< 1e-05 s⁻¹
G13U A14U C58A C67U	5.09e-05 ± 1.8e-05 s⁻¹	0.000334 ± 7.5e-05 s⁻¹	–	0.000194 ± 4.3e-05 s⁻¹
A12U G41U U45A	0.00011 ± 2.8e-05 s⁻¹	0.000989 ± 0.00025 s⁻¹	–	0.000308 ± 5.9e-05 s⁻¹
A12G A15U A53C C67A	< 1e-05 s⁻¹	–	–	–
U31A A33G	< 1e-05 s⁻¹	–	< 1e-05 s⁻¹	< 1e-05 s⁻¹
G32U G41A U47G C61A G62U	< 1e-05 s⁻¹	< 1e-05 s⁻¹	–	< 1e-05 s⁻¹
G32C A36U C50A C70G	0.0002 ± 3.9e-05 s⁻¹	0.000299 ± 0.0001 s⁻¹	–	0.000332 ± 8.2e-05 s⁻¹
C11U A42U G43U A53G C68G	0.0001 ± 3.7e-05 s⁻¹	0.0001 ± 3.5e-05 s⁻¹	–	0.000213 ± 6.4e-05 s⁻¹
U30C U31G C50G C70G	0.000158 ± 4.4e-05 s⁻¹	0.00026 ± 5.8e-05 s⁻¹	–	0.000289 ± 0.0001 s⁻¹
C8U A39C C50G C61G	< 1e-05 s⁻¹	< 1e-05 s⁻¹	–	< 1e-05 s⁻¹
C8G C11A	< 1e-05 s⁻¹	< 1e-05 s⁻¹	< 1e-05 s⁻¹	< 1e-05 s⁻¹
C16G A52G U69G	9.5e-05 ± 3e-05 s⁻¹	0.000143 ± 3.9e-05 s⁻¹	–	–
A12G U47A C70U	5.89e-05 ± 2.2e-05 s⁻¹	0.000394 ± 9.5e-05 s⁻¹	–	0.000192 ± 3e-05 s⁻¹
A12G A33G	< 1e-05 s⁻¹	< 1e-05 s⁻¹	< 1e-05 s⁻¹	< 1e-05 s⁻¹
G29A C50G	0.000108 ± 3.1e-05 s⁻¹	0.00038 ± 0.00019 s⁻¹	–	3.64e-05 ± 1.5e-05 s⁻¹
G29C G41C G60A	< 1e-05 s⁻¹	< 1e-05 s⁻¹	< 1e-05 s⁻¹	< 1e-05 s⁻¹
U30G G51U	< 1e-05 s⁻¹	–	< 1e-05 s⁻¹	–
C10A A33G A36U G37C C61G	< 1e-05 s⁻¹	–	–	< 1e-05 s⁻¹
G13C C50G	0.00119 ± 0.00034 s⁻¹	–	–	–

Variant	self-cleavage kobs at 160 uM GlcN6P [1]	self-cleavage kobs at 2500 uM GlcN6P [2]	self-cleavage kobs at 10000 uM GlcN6P [3]	self-cleavage kobs at 640 uM GlcN6P [4]
G9C A12G	< 1e-05 s⁻¹	< 1e-05 s⁻¹	< 1e-05 s⁻¹	–
C8G G38A C58G C67G	0.000186 ± 5e-05 s⁻¹	0.000435 ± 0.00014 s⁻¹	–	0.000538 ± 0.00013 s⁻¹
G9U C16U	< 1e-05 s⁻¹	< 1e-05 s⁻¹	< 1e-05 s⁻¹	< 1e-05 s⁻¹
C8A C50U U55C	< 1e-05 s⁻¹	–	–	< 1e-05 s⁻¹
G29A A39C C61G	< 1e-05 s⁻¹	–	< 1e-05 s⁻¹	< 1e-05 s⁻¹
G29A U31G G62A	< 1e-05 s⁻¹	–	–	–
G32C G51C C68U	< 1e-05 s⁻¹	< 1e-05 s⁻¹	–	–
C8U C11U C16G U55G	< 1e-05 s⁻¹	–	–	< 1e-05 s⁻¹
C8A G29C G32C	< 1e-05 s⁻¹	–	–	–
G13A C50G C61G	0.000169 ± 2.6e-05 s⁻¹	0.000114 ± 2.2e-05 s⁻¹	–	0.000203 ± 3.6e-05 s⁻¹
C11A G38C	< 1e-05 s⁻¹	< 1e-05 s⁻¹	–	–
C11G U46G C61A G66A	< 1e-05 s⁻¹	< 1e-05 s⁻¹	–	< 1e-05 s⁻¹
A15G U55G C70A	7.19e-05 ± 1.2e-05 s⁻¹	0.000186 ± 3.7e-05 s⁻¹	–	0.000151 ± 2.6e-05 s⁻¹
C10G A14U A42U G60C C67G	< 1e-05 s⁻¹	–	–	–
G9A A36G A64C	< 1e-05 s⁻¹	< 1e-05 s⁻¹	–	–
C8G G44A	< 1e-05 s⁻¹	< 1e-05 s⁻¹	< 1e-05 s⁻¹	< 1e-05 s⁻¹
C8G G44C	< 1e-05 s⁻¹	< 1e-05 s⁻¹	< 1e-05 s⁻¹	< 1e-05 s⁻¹
A14U U45A U46C	0.000306 ± 0.0001 s⁻¹	0.00191 ± 0.00053 s⁻¹	–	0.00108 ± 0.00027 s⁻¹
A14G G35A U47C C67A	< 1e-05 s⁻¹	–	–	< 1e-05 s⁻¹
G9A G29A A48C C58U	< 1e-05 s⁻¹	–	–	–
G32U C34A G40C U57A G62U	< 1e-05 s⁻¹	–	–	–
A14C A15C A48U	< 1e-05 s⁻¹	–	–	–
U30A G41U U57G G62A	< 1e-05 s⁻¹	< 1e-05 s⁻¹	–	< 1e-05 s⁻¹
U30A G32C G62A	< 1e-05 s⁻¹	< 1e-05 s⁻¹	–	–
